Experimental data reported in US20200369781A1 (published 2020).
Numbering of substitutions follows the chain as printed. One block for each binder: values may come before it.

Assays:
soluble human IL-6R [1] = biological target: T1, soluble human IL-6R (human, UniProt P08887 20-357); test: BLI (Octet), in the same way as in Example 3
T1 construct: 152, 4958-4968 (1994); also called hsIL-6R; recombinant human IL-6R
T1 sequence: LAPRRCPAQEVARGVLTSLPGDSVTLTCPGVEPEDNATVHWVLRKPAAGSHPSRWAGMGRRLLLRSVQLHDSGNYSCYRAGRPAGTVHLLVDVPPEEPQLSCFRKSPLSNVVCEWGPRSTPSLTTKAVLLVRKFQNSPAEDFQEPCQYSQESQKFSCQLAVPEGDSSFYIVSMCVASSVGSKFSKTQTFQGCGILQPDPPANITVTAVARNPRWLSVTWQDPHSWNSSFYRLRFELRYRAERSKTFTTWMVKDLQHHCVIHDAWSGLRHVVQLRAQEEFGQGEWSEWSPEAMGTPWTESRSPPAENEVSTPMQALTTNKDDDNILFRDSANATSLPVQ

soluble human IL-6R [2] = biological target: T1, soluble human IL-6R; test: BLI (Octet), in the same way as in Example 3, 30 C or 25 C
soluble human IL-6R [3] = biological target: T1, soluble human IL-6R; test: BLI (Octet HTX), molecule captured on Protein A biosensor, hsIL-6R as analyte, 30 C
Description: The hsIL-6R binding evaluation of each molecule was conducted using Octet HTX (Pall ForteBio Corp.). Specifically, each molecule was allowed to bind to Biosensor/Protein A (ProA) (Pall ForteBio Corp., 18-5013), and hsIL-6R was allowed to act thereon, followed by binding evaluation at 30° C.

binding result (soluble human IL-6R [1]): binds
B1: 20A11-G1m/VK2-28-k0MT (antibody, human IgG1, kappa, V domains shown)
VH: EVQLVESGGGLVQPGGSLRLSCAASGSVFKINVMAWYRQAPGKGRELVAGIISGGSTSYADSVKGRFTISRDNAKNTLYLQMNSLRPEDTAVYYCAFITTESDYDLGRRYWGQGTLVTVSS
VL: not shown
notes: IgG antibody-like molecule with VHH 20A11 in place of VH

binding result (soluble human IL-6R [2]): no binding
B2: 20A11hu-G1m/VK2-28-k0MT (antibody, human IgG1, kappa, V domains shown)
VH: B1 VH with Y37V, R45L, L47W
VL: not shown
notes: IgG antibody-like molecule with VHH 20A11hu in place of VH

binding result (soluble human IL-6R [3]): no binding
B3: IL6R90-G1m/VK2-28-k0MT (antibody, human IgG1, kappa, V domains shown)
VH: EVQLVESGGGLVQPGGSLRLSCAASGFTFDDYGMSWVRQAPGKALEWVSAISWNGNNTYYTESMKGRFTISRDNAKNTLYLQMNSLRPEDTAVYYCVKGSTAIVGVPPTYPDEYDYWGQGTLVTVSS
VL: not shown
notes: IgG antibody-like molecule with VHH IL6R90 in place of VH
